One protein from PMC2488374, “Study of a Synthetic Human Olfactory Receptor 17-4: Expression and Purification from an Inducible Mammalian Cell Line” (PLoS ONE, 2008) can be followed below.

The data set deals with the molecule itself. The data set can be described thus: SEC; immunoaffinity-purified hOR17-4 at 0.75 mg/ml on HiLoad 16/60 Superdex 200 in PBS + 0.2% w/v fos-choline-14, 1 ml/min; peak fractions analysed by SDS-PAGE and SYPRO-Ruby staining. A general note: In gel filtration, larger molecules generally elute earlier.

B1: human olfactory receptor 17-4 with C-terminal GlyGly linker and rho1D4 tag (hOR17-4-GlyGly-rho1D4) (receptor, UniProt P34982 1-312, looked up)
chain: MDGGNQSEGSEFLLLGMSESPEQQRILFWMFLSMYLVTVVGNVLIILAISSDSRLHTPVYFFLANLSFTDLFFVTNTIPKMLVNLQSHNKAISYAGCLTQLYFLVSLVALDNLILAVMAYDRYVAICCPLHYTTAMSPKLCILLLSLCWVLSVLYGLIHTLLMTRVTFCGSRKIHYIFCEMYVLLRMACSNIQINHTVLIATGCFIFLIPFGFVIISYVLIIRAILRIPSVSKKYKAFSTCASHLGAVSLFYGTLCMVYLKPLHTYSVKDSVATVMYAVVTPMMNPFIYSLRNKDMHGALGRLLDKHFKRLT
notes: human olfactory receptor 17-4 (OR1D2), wild type, 312 amino acids; with GlyGly linker and rho1D4 tag the construct has 323 amino acids; Synthetic, human codon-optimised gene in pcDNA4/To; also called OR1D2; hOR17-4-rho
Regarding B1, the “stoichiometry N” value worked out at 2.

A word on the stoichiometry N: it is a count of units in the complex or per binding partner.
